Holding throughout (test): fluorescence polarisation; increasing concentrations of the RA/RB domain as MBP fusion protein (0.002-300 µM; or MBP alone) titrated to mGppNHp-bound RAS protein (1 µM); 30 mM Tris-HCl pH 7.4, 100 mM NaCl, 5 mM MgCl2, 3 mM DTT; Kd from a quadratic ligand-binding equation
Holding throughout (details): both partners purified

One test addresses T1, HRAS, mGppNHp-bound (human, UniProt P01112-1 1-189).
T1 construct: human HRAS; Loaded with mGppNHp, a fluorescent non-hydrolysable GTP analogue; That the RAS proteins were the pGEX (GST) constructs is surmised; also called HRAS1; p21HRAS

Another test concerns the target T2, RIT1, mGppNHp-bound (human, UniProt Q92963 1-219).
T2 construct: human RIT1; Loaded with mGppNHp

For a further test, the target named is T3, RRAS1, mGppNHp-bound (human, UniProt P10301 1-218).
T3 construct: human RRAS (RRAS1); Loaded with mGppNHp
T3 sequence (looked up): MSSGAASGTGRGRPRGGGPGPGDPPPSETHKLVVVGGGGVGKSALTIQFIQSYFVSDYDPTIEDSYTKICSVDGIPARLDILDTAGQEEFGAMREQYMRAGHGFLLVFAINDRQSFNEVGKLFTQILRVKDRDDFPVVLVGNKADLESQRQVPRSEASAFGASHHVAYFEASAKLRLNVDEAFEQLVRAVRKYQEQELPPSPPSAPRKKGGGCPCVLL

The target in the next test is T4, RALA, mGppNHp-bound (human, UniProt P11233 1-206).
T4 construct: human RALA; Loaded with mGppNHp
T4 sequence (looked up): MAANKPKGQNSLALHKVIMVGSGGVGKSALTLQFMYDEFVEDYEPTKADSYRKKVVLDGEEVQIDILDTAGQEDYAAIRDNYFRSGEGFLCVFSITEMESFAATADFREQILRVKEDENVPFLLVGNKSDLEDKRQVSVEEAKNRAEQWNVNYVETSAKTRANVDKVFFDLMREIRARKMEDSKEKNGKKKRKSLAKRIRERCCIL

T2 sequence (Q92963 whole entry): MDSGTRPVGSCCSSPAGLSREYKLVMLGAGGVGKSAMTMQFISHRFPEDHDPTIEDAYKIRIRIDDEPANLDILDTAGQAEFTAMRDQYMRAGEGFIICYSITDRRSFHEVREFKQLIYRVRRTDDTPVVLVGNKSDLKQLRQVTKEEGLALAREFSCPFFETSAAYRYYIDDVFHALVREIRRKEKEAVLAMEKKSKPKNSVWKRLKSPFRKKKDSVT

B1: RASSF9-to-5 variant of the RASSF9 RA domain, MBP fusion protein (domain or fragment, human, UniProt O75901 25-119, looked up)
chain: EEKEIVVWVCQEEKLDCIKTLHTTSADVIQALLEEHEATFGEKRFLLGKPSDYCIIEKWRGSERVLPPLTRILKLWKAWGDEQPNMQFVLVKADA
notes: RASSF9 RA domain (aa 25-119 of O75901, the limits of the wild-type construct) with five hotspot residues changed to those of RASSF5; source: gene synthesis (BioCat) in pMal-c5X-His vector; E. coli, purified
As to B1, the Kd with HRAS, mGppNHp-bound stood at 40 µM; with RIT1, mGppNHp-bound, 150 µM.

B2: RASSF2-to-1 variant of the RASSF2 RA domain, MBP fusion protein (domain or fragment, human, UniProt P50749 176-264, looked up)
chain: YNHKTSVFTPKDGSKHNVRINSTMTTPQVLKLLLNKFKIENSAEEFALYVVHTSGEKQKLKATDYPLIARILQGPCEQISKVFLMEKDQ
notes: RASSF2 RA domain (aa 176-264 of P50749, the limits of the wild-type construct) with four hotspot residues changed to those of RASSF1; source: gene synthesis (BioCat) in pMal-c5X-His vector; E. coli, purified
As for B2, the Kd with RRAS1, mGppNHp-bound was 100 µM; with RALA, mGppNHp-bound, 49 µM.

The record behind these values is PMC8163975 (The Journal of Biological Chemistry, 2021).
